Results on four molecules are retold here after patent US20250352667A1.

The target in assay [1] is KEAP1 (wild-type full-length), His-tagged (human) (UniProt Q14145). Briefly: AlphaScreen; 2.4 nM FLAG-NRF2, 150 nM His-KEAP1; Rep 3; control for I86V.
The target is the same in assay [2]. Briefly: AlphaScreen; 4.8 nM FLAG-NRF2, 150 nM His-KEAP1; Rep 2; control for I28V.
Assay [3] has the same target. Description: AlphaScreen; 153.6 nM FLAG-NRF2, 150 nM His-KEAP1; signal against NRF2 only; control for I28V.
Assay [4] has the same target. Briefly: AlphaScreen; 307.2 nM FLAG-NRF2, 150 nM His-KEAP1; Rep 1; control for I86V.
The target is the same in assay [5]. Briefly: AlphaScreen; FLAG-NRF2 wt isoform 1 38.4 nM, His-KEAP1 150 nM; Repeat 2; positive control for Q75R.
Assay [6] shares this target. Description: AlphaScreen; NRF2 wt isoform 1 4.8 nM, KEAP1 150 nM; signal against NRF2-only control; control for Q75R.
The target is the same in assay [7]. Description: AlphaScreen; 19.2 nM FLAG-NRF2, 150 nM His-KEAP1; Repeat 2 (same value as in Table 26).
The target is the same in assay [8]. Description: AlphaScreen; 76.8 nM FLAG-NRF2, 150 nM His-KEAP1; Rep 2; control for I86V.
For assay [9] the target is unchanged. Description: AlphaScreen; 19.2 nM FLAG-NRF2, 150 nM His-KEAP1; signal against NRF2 only; control for I28V.
For assay [10] the target is unchanged. Description: AlphaScreen; 19.2 nM FLAG-NRF2, 150 nM His-KEAP1; Rep 3; control for I86V.
The target is the same in assay [11]. Briefly: AlphaScreen; FLAG-NRF2 wt isoform 1 2.4 nM, His-KEAP1 150 nM; Rep 2; positive control for Q75R.
Assay [12] shares this target. Briefly: AlphaScreen; 38.4 nM FLAG-NRF2, 150 nM His-KEAP1 (same value as in Table 26).
The target is the same in assay [13]. Description: AlphaScreen; 9.6 nM FLAG-NRF2, 150 nM His-KEAP1; Repeat 2 (same value as in Table 26).
Assay [14] has the same target. Briefly: AlphaScreen; 9.6 nM FLAG-NRF2, 150 nM His-KEAP1; wild type set to 100%.
Assay [15] has the same target. Briefly: AlphaScreen; 614.4 nM FLAG-NRF2, 150 nM His-KEAP1; Rep 2; control for I28V.
The target is the same in assay [16]. Briefly: AlphaScreen; NRF2 wt isoform 1 9.6 nM, KEAP1 150 nM; signal against NRF2-only control; control for I86V.
For assay [17] the target is unchanged. Briefly: AlphaScreen; 153.6 nM FLAG-NRF2, 150 nM His-KEAP1; signal against NRF2 only; control for I86V.
For assay [18] the target is unchanged. Description: AlphaScreen; 9.6 nM FLAG-NRF2, 150 nM His-KEAP1; signal against NRF2 only; control for I28V.
Assay [19] has the same target. Briefly: AlphaScreen; NRF2 I86V 307.2 nM, KEAP1 150 nM; signal against NRF2-only control.
Assay [20] has the same target. Description: AlphaScreen; FLAG-NRF2 I86V 1228.8 nM, His-KEAP1 150 nM; Rep 3.
Assay [21] has the same target. Description: AlphaScreen; FLAG-NRF2 Q75R 4.8 nM, His-KEAP1 150 nM; Rep 1.
Assay [22] shares this target. Briefly: AlphaScreen; FLAG-NRF2 Q75R 614.4 nM, His-KEAP1 150 nM; Rep 2.
For assay [23] the target is unchanged. Description: AlphaScreen; FLAG-NRF2 Q75R 38.4 nM, His-KEAP1 150 nM; Rep 1.
Assay [24] has the same target. Briefly: AlphaScreen; 9.6 nM FLAG-NRF2, 150 nM His-KEAP1; Repeat 2 (same value as in Table 27).
Assay [25] has the same target. Briefly: AlphaScreen; 307.2 nM FLAG-NRF2, 150 nM His-KEAP1; signal against NRF2 only.
Assay [26] has the same target. Description: AlphaScreen; mean over 9.6, 19.2 and 38.4 nM NRF2; 150 nM His-KEAP1; against wild-type NRF2 isoform 1.
The target is the same in assay [27]. Briefly: AlphaScreen; 614.4 nM FLAG-NRF2, 150 nM His-KEAP1; signal against NRF2 only.

Sequence of KEAP1 (wild-type full-length), His-tagged (human) (Q14145 2-624 limits assumed): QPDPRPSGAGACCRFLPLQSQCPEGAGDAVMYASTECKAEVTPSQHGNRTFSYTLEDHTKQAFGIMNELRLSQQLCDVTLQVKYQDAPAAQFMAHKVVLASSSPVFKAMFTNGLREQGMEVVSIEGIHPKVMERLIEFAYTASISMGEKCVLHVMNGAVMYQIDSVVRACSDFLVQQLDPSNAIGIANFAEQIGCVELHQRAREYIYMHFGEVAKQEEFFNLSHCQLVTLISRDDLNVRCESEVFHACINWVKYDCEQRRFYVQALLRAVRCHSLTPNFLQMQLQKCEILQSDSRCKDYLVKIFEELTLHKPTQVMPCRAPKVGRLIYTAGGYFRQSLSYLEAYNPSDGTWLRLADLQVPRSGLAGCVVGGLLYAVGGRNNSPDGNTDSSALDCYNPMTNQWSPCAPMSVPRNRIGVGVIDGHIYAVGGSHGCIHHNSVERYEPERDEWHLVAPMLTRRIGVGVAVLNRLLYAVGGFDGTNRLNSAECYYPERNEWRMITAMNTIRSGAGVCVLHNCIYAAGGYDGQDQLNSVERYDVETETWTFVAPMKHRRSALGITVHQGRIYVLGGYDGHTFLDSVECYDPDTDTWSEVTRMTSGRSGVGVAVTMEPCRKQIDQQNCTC

B1: NRF2 isoform 1 (wild-type full-length), FLAG-tagged (protein)
chain: MMDLELPPPGLPSQQDMDLIDILWRQDIDLGVSREVFDFSQRRKEYELEKQKKLEKERQEQLQKEQEKAFFAQLQLDEETGEFLPIQPAQHIQSETSGSANYSQVAHIPKSDALYFDDCMQLLAQTFPFVDDNEVSSATFQSLVPDIPGHIESPVFIATNQAQSPETSVAQVAPVDLDGMQQDIEQVWEELLSIPELQCLNIENDKLVETTMVPSPEAKLTEVDNYHFYSSIPSMEKEVGNCSPHFLNAFEDSFSSILSTEDPNQLTVNSLNSDATVNTDFGDEFYSAFIAEPSISNSMPSPATLSHSLSELLNGPIDVSDLSLCKAFNQNHPESTAEFNDSDSGISLNTSPSVASPEHSVESSSYGDTLLGLSDSEVEELDSAPGSVKQNGPKTPVHSSGDMVQPLSPSQGQSTHVHDAQCENTPEKELPVSPGHRKTPFTKDKHSSRLEAHLTRDELRAKALHIPFPVEKIINLPVVDFNEMMSKEQFNEAQLALIRDIRRRGKNKVAAQNCRKRKLENIVELEQDLDHLKDEKEKLLKEKGENDKSLHLLKKQLSTLYLEVFSMLRDEDGKPYSPSEYSLQQTRDGNVFLVPKSKKPDVKKN
As to B1, the A-counts in assay [1] was 1100 A-counts; in [2], 1160 A-counts; in [4], 2640 A-counts; in [7], 2000 A-counts; in [8], 2780 A-counts; in assay [10] it was 3040 A-counts. Besides, the A-counts was found to be 1640 A-counts in assay [13] and 1810 A-counts in [15]. The S/N in [3] came out at 1.9; in [6] it was 2.5; in [9], 4.2; in assay [12] it was 3.6; in assay [16], 3.6; in [17], 2. The molecule further gave a S/N in assay [18] of 4.1. Moreover, the values for the A-counts (NRF2 plus KEAP1) in assay [5] and in [11] were 1450 A-counts and 429 A-counts, respectively. The same molecule gave a Binding Percentage (%) in assay [14] of 100%.

B2: NRF2 isoform 1 (I86V full-length), FLAG-tagged (protein)
chain: MMDLELPPPGLPSQQDMDLIDILWRQDIDLGVSREVFDFSQRRKEYELEKQKKLEKERQEQLQKEQEKAFFAQLQLDEETGEFLPVQPAQHIQSETSGSANYSQVAHIPKSDALYFDDCMQLLAQTFPFVDDNEVSSATFQSLVPDIPGHIESPVFIATNQAQSPETSVAQVAPVDLDGMQQDIEQVWEELLSIPELQCLNIENDKLVETTMVPSPEAKLTEVDNYHFYSSIPSMEKEVGNCSPHFLNAFEDSFSSILSTEDPNQLTVNSLNSDATVNTDFGDEFYSAFIAEPSISNSMPSPATLSHSLSELLNGPIDVSDLSLCKAFNQNHPESTAEFNDSDSGISLNTSPSVASPEHSVESSSYGDTLLGLSDSEVEELDSAPGSVKQNGPKTPVHSSGDMVQPLSPSQGQSTHVHDAQCENTPEKELPVSPGHRKTPFTKDKHSSRLEAHLTRDELRAKALHIPFPVEKIINLPVVDFNEMMSKEQFNEAQLALIRDIRRRGKNKVAAQNCRKRKLENIVELEQDLDHLKDEKEKLLKEKGENDKSLHLLKKQLSTLYLEVFSMLRDEDGKPYSPSEYSLQQTRDGNVFLVPKSKKPDVKKN
In the case of B2, in [19], the S/N was determined as 1.3. For the same molecule, the A-counts (NRF2 plus KEAP1) in assay [20] came to 1620 A-counts.

B3: NRF2 isoform 1 (Q75R full-length), FLAG-tagged (protein)
chain: MMDLELPPPGLPSQQDMDLIDILWRQDIDLGVSREVFDFSQRRKEYELEKQKKLEKERQEQLQKEQEKAFFAQLRLDEETGEFLPIQPAQHIQSETSGSANYSQVAHIPKSDALYFDDCMQLLAQTFPFVDDNEVSSATFQSLVPDIPGHIESPVFIATNQAQSPETSVAQVAPVDLDGMQQDIEQVWEELLSIPELQCLNIENDKLVETTMVPSPEAKLTEVDNYHFYSSIPSMEKEVGNCSPHFLNAFEDSFSSILSTEDPNQLTVNSLNSDATVNTDFGDEFYSAFIAEPSISNSMPSPATLSHSLSELLNGPIDVSDLSLCKAFNQNHPESTAEFNDSDSGISLNTSPSVASPEHSVESSSYGDTLLGLSDSEVEELDSAPGSVKQNGPKTPVHSSGDMVQPLSPSQGQSTHVHDAQCENTPEKELPVSPGHRKTPFTKDKHSSRLEAHLTRDELRAKALHIPFPVEKIINLPVVDFNEMMSKEQFNEAQLALIRDIRRRGKNKVAAQNCRKRKLENIVELEQDLDHLKDEKEKLLKEKGENDKSLHLLKKQLSTLYLEVFSMLRDEDGKPYSPSEYSLQQTRDGNVFLVPKSKKPDVKKN
In the case of B3, the A-counts (NRF2 plus KEAP1) worked out at 826 A-counts in [21], 855 A-counts in assay [22] and 1200 A-counts in assay [23].

B4: NRF2 isoform 1 (I28V full-length), FLAG-tagged (protein)
chain: MMDLELPPPGLPSQQDMDLIDILWRQDVDLGVSREVFDFSQRRKEYELEKQKKLEKERQEQLQKEQEKAFFAQLQLDEETGEFLPIQPAQHIQSETSGSANYSQVAHIPKSDALYFDDCMQLLAQTFPFVDDNEVSSATFQSLVPDIPGHIESPVFIATNQAQSPETSVAQVAPVDLDGMQQDIEQVWEELLSIPELQCLNIENDKLVETTMVPSPEAKLTEVDNYHFYSSIPSMEKEVGNCSPHFLNAFEDSFSSILSTEDPNQLTVNSLNSDATVNTDFGDEFYSAFIAEPSISNSMPSPATLSHSLSELLNGPIDVSDLSLCKAFNQNHPESTAEFNDSDSGISLNTSPSVASPEHSVESSSYGDTLLGLSDSEVEELDSAPGSVKQNGPKTPVHSSGDMVQPLSPSQGQSTHVHDAQCENTPEKELPVSPGHRKTPFTKDKHSSRLEAHLTRDELRAKALHIPFPVEKIINLPVVDFNEMMSKEQFNEAQLALIRDIRRRGKNKVAAQNCRKRKLENIVELEQDLDHLKDEKEKLLKEKGENDKSLHLLKKQLSTLYLEVFSMLRDEDGKPYSPSEYSLQQTRDGNVFLVPKSKKPDVKKN
On to B4, for which the A-counts in assay [24] was determined as 1560 A-counts. Moreover, the S/N is 1.2 in assay [25] and 1 in assay [27]. The molecule further came in with an Avg. Reduction in Binding in [26] of 30.2%.
